B1: MOR024353: anti-PMEL17 antibody (IgG) (antibody, V domains shown)
VH: QVQLVQSGAEVKKPGSSVKVSCKASGGTFSDYAISWVRQAPGQGLEWMGGIIPIFGDANYAQKFQGRVTITADESTSTAYMELSSLRSEDTAVYYCAREGSSYFYMAYWGQGTLVTVSS
VL: SYELTQPLSVSVALGQTARITCSGDNIGSKLASWYQQKPGQAPVLVIYDDSNRPSGIPERFSGSNSGNTATLTISRAQAGDEADYYCAATAGDRWAYVFGGGTKLTVL
B2: Fc Silent G1-3J-DAR2 (E152C)-(B1) (conjugate)
heavy: QVQLVQSGAEVKKPGSSVKVSCKASGGTFSDYAITWVRQAPGQGLEWMGGIIPIFGTANYAQKFQGRVTITADESTSTAYMELSSLRSEDTAVYYCAREGGLLTDISYSRYWFAYWGQGTLVTVSS
light: SYELTQPLSVSVALGQTARITCSGDALRDKFVYWYQQKPGQAPVLVIYDDNNRPSGIPERFSGSNSGNTATLTISRAQAGDEADYYCQSWDHSYSLVVFGGGTKLTVLGQPKAAPSVTLFPPSSEELQANKATLVCLISDFYPGAVTVAWKADSSPVKAGVETTTPSKQSNNKYAASSYLSLTPEQWKSHRSYSCQVTHEGSTVEKTVAPTECS
modifications: left off: a dimerising Fc or GST

What was measured:
UACC-62 = assay: FACS titration of IgGs on UACC-62 cells; type: binding; settings: UACC-62, PE-labelled detection antibody
Protocol: (§1) Purified IgGs were titrated on a variety of PMEL17 expressing and PMEL17 non expressing cell lines (for control) to determine EC50 values. Cells were harvested using Accutase, adjusted to ˜4×10^6 cells/ml into FACS buffer (PBS, 3% FCS and 0.02% Na-Azide) and kept on ice to avoid internalization. 15 μl of cell suspension/well were transferred into 384 well V-bottom plates (Greiner, Cat #781280) and incubated with 15 μl of IgGs at different concentrations (most commonly from 200 to 3.5×10−3 nM) for 1 hour at 4° C., gently shaking. Following incubation, cells were washed three times with FACS buffer. After each washing step, cells were centrifuged (250×g, 5 min, 4° C.) and carefully resuspended. 15 μl of detection antibody conjugated to PE (PE-conjugated goat anti-human IgG, F(ab′)2 fragment specific, 1:150 in FACS buffer; Jackson Immuno Research, #109-116-097) or Alexa Fluor (Alexa Fluor-conjugated goat anti-human IgG, F(ab′)2 fragment specific, 1:150 in FACS buffer; Jackson Immuno Research, #109-606-097) were added and samples were incubated for 45 minutes to 1 hour on ice in the dark, gently shaking. After 3 washing steps, cells were resuspended in 30 μl of FACS buffer and samples were measured using the IntelliCyt HTFC device. EC50 values were calculated using the Graphpad Prism software. G-361 melanoma cell line expresses human PMEL17 at a lower level compared to the HKB11-human PMEL17 overexpressing cell line, and therefore allows a more precise ranking of the clones depending on their apparent affinity on cells.

PMEL17 = assay: Cross-reactivity (cross-specificity profile) of anti-PMEL17 IgGs in dose response FACS; type: binding; parameters: key: h/c/r/m: human/cyno/rat/mouse; h/c/r: human/cyno/rat; h/c/(m): human/cyno/mouse; h/c: human/cyno; settings: h human, c cyno, r rat, m mouse
Protocol: (§2) The cross-specificity of the IgGs was evaluated in does response FACS on G-361 (human melanoma), HKB11-cyno-PMEL17, HKB11-rat PMEL17 and B16-F10 (mouse PMEL17 expressing melanoma) (Table 3). Testing on G-361 was performed using a detection antibody labelled to PE. In contrast, an Alexa-Fluor labelled detection antibody had to be used for testing the candidates on the other cell lines so as to reach detectable signals.
IgGs were classified into several epitope groups according to their cross-specificity profiles.

mouse PMEL17 = biological target: T1, mouse PMEL17 (Mus musculus, UniProt Q60696); assay: Apparent affinity by FACS titration of IgGs on B16-F10 melanoma cells; type: binding; settings: Alexa Fluor
T1 construct: B16-F10 (mouse PMEL17 expressing melanoma); endogenous in cells; host or cells: B16-F10 (mouse melanoma)
T1 sequence (Q60696 24-626): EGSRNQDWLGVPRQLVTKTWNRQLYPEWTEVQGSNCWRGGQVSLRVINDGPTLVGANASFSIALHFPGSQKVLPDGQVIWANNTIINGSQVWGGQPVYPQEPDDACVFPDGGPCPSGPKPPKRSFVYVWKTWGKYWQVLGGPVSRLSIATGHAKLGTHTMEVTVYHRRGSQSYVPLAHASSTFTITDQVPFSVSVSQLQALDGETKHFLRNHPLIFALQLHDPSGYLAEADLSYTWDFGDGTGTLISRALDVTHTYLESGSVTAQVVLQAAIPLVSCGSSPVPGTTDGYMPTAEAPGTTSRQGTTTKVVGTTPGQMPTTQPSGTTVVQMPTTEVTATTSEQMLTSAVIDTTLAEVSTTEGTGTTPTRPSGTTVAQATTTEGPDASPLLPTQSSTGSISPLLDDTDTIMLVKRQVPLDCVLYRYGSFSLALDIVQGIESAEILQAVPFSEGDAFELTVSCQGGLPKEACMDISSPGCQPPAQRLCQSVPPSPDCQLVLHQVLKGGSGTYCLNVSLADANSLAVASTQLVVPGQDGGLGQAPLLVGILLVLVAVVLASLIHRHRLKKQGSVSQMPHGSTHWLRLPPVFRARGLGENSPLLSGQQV
Protocol: as §1, §2

human PMEL17 = biological target: T2, human PMEL17 (Homo sapiens, UniProt P40967); assay: Apparent affinity by FACS titration of IgGs on G-361 melanoma cell line; type: binding; settings: G-361, Alexa Fluor-labelled detection antibody; read-out: FACS EC50 (nM) G-361 (Alexa Fluor)
T2 construct: G-361 melanoma cell line expresses human PMEL17 at a lower level compared to the HKB11-human PMEL17 overexpressing cell line; endogenous in cells; host or cells: G-361 (human melanoma)
T2 sequence (P40967 25-661): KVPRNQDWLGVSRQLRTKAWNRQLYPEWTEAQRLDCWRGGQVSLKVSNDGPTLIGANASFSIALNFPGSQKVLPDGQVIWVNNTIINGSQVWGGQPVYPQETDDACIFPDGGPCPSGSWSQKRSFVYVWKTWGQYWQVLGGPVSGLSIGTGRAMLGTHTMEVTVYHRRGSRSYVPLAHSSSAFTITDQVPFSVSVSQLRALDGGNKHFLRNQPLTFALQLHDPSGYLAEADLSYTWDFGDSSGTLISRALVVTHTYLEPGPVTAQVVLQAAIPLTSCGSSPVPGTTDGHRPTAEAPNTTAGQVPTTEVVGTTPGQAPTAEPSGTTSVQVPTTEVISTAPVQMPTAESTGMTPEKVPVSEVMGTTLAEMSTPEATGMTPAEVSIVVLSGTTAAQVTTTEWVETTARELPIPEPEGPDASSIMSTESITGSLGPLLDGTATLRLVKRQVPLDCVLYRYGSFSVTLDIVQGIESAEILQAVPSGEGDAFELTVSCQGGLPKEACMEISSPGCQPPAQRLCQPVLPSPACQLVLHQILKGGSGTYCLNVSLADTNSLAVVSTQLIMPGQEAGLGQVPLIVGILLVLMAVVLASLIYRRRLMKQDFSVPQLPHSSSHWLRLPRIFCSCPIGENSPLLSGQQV
Protocol: as §1
The cross-specificity of the IgGs was evaluated in does response FACS on G-361 (human melanoma), HKB11-cyno-PMEL17, HKB11-rat PMEL17 and B16-F10 (mouse PMEL17 expressing melanoma) (Table 3). […]

[1] = tested on: 92.1-luciferase subcutaneous xenografts; assay: 92.1-luciferase subcutaneous xenograft tumor growth in female nude mice; type: in vivo; settings: single i.v. injection, FIG. 18
Protocol: Treatment (single dose i.v. injection) was performed 17 days post tumor inoculation. Values are mean±SEM; sample size, (n=5-12 mice per group). Initial tumor volume at day 0 was approximately 200-250 mm^3.
Treatments (single dose i.v. injection) were performed 17 days post tumor inoculation. Values represent mean±SEM; sample size, (n=5-6 mice per group). Initial tumor volume at day 0 was approximately 300-325 mm^3. (FIG. 16).
Treatment (single dose i.v. injection) was performed 14-17 days post tumor inoculation. Values are mean±SEM; sample size, (n=5-12 mice per group). Initial tumor volume at day 0 was approximately 200-250 mm3.

92.1 uveal melanoma = assay: Resazurin-based viability assay, 92.1 uveal melanoma cells; type: cell-based; settings: 92.1; Table 10; read-out: GI50
Protocol: (§3) Following drug treatment for 96 or 120 hours, cell viability and proliferation were determined using a resazurin-based viability assay. Briefly, cells were incubated with a resazurin-based solution and color change was detected by absorbance with a spectrophotometer and used as a readout of cell viability. Data presented as mean of 3 independent replicates and relative to PBS-treated cells (control).
as §3, with “(control) (FIG. 6).” for “(control).”
Following drug treatment for 96 or 120 hours, cell viability and proliferation were determined using a resazurin-based viability assay. Data presented as mean of 3 independent replicates and relative to PBS-treated cells (control) (FIG. 8).
as §3

Molecule | UACC-62 (PE) (UACC-62) | Cross spe profile (based on C14 detection ab) (PMEL17) | EC50 (mouse PMEL17) | EC50 (human PMEL17) | tumor growth [1] | GI50 (92.1 uveal melanoma)
B1 | Negative | h/c | > 100 nM | 62.8 nM |  | 
B2 |  |  |  |  | inhibited tumor growth in a dose-dependent manner | 0.278 nM

Source: patent publication US11779649B2, “Antibodies to PMEL17 and conjugates thereof” (Novartis AG, priority 2018, dated 2023)
